Measurements published in patent publication US20210371491A1, “CHIMERIC ANTIGEN RECEPTORS THAT BIND TO PROSTATE SPECIFIC MEMBRANE ANTIGEN” (Albert-Ludwigs-Universitaet Freiburg, priority 2018, published 2021).

Molecular target: prostate specific membrane antigen (PSMA) (UniProt Q04609)
Test: cell-based or functional assay

Chain of prostate specific membrane antigen (PSMA) (Q04609 whole entry, form in doubt): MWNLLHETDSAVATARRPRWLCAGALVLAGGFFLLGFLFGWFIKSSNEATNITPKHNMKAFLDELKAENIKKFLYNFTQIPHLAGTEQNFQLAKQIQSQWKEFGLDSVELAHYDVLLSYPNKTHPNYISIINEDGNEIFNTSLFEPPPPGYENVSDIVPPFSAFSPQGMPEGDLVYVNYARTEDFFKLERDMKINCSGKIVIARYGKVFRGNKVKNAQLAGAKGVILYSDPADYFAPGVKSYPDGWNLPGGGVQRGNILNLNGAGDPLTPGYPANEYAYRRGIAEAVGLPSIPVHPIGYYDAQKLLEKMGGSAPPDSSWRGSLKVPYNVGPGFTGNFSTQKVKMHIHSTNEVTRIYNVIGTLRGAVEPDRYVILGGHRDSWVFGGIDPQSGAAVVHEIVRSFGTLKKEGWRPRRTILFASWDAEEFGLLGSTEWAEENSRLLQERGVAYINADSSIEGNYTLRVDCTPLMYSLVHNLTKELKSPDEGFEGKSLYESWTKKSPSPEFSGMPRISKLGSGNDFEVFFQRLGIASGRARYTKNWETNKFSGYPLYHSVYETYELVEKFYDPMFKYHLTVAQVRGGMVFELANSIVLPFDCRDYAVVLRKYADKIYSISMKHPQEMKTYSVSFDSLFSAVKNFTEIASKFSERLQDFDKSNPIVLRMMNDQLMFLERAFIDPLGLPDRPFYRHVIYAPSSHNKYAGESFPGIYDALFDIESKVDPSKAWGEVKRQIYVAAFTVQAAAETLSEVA

percentage of CD69-positive CAR Jurkat cells after 24 h stimulation with PSMA-positive tumor cells (C4-2, LNCaP), E:T 1:1: 70%
Substance: CAR28 (J591), anti-PSMA CAR with scFv derived from antibody J591
